Laboratory results taken from the nanobody polyreactivity screen of Harvey et al. (2022).

Experiment: yeast display, Sf9 membrane polyspecificity reagent, FACS + sequencing; frameworks hold sequencing errors
Procedure, shortened: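 Polyreactivity labels are assigned by the sorting gate from which each nanobody was recovered. The gates were low and high (top ~1%), set on anti-HA fluorescence for expression and streptavidin fluorescence for reagent binding. Before sorting, galactose-induced (36–48 hours) yeast display cells were stained for 1 hour at 4 °C with 10% biotinylated, detergent-solubilized Sf9 membrane reagent.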

In the case of “QVQLVESGGGLVQAGGSLRLSCAASGLTFTSYAMGWYRQAPGKERELVAAITAGGVSTYYADSEKGRFTISRDNAKNTVYLQMNSLKPEDTAVYYCAVDPPYSNPITINEDYWGQGTQVTVSS”, the “polyreactivity (PSR sort gate)” value was “low polyreactivity”.

With “QVQLVESGGGLVQAGGSLRLSCAATGITLYGYFMGWYRQAPGKERELVAAISRSGGSTYYADSVMGRFTISRDNAKNTVYLQMNSLKPEDTAVYYCAKVPRYYYDSEFDYWGQGTQVTVSS” the “polyreactivity (PSR sort gate)” value was “high polyreactivity”.

With “QVQLQESGGGLVQAGGSLRLSCAASGCISVYTPMGWYRQAPGKERVLVAGINICANTYYADSVKGRFTISRDNAKNTLYLQMNSLKPEDTAVYYCAARRRPGGRYKSRVWYDYWGQGTQVTVSS” the “polyreactivity (PSR sort gate)” value was “high polyreactivity”.

For “QVQLEDSGGGLVQAGGSLRLICAASGSILNYKAMGWYRHAPGKERELVAGIRSSGGSTYYADSVKGRFTISRDNAKNTVYLKMNSLKPEDTAVYDWAKRTYWRRGWGFDFWGQGTQVTVSS”, the “polyreactivity (PSR sort gate)” value was “high polyreactivity”.

For “QVQLVESGGGLVQAGGSLRLSCAASGSTFFYSMGWYRKAPRKERELVAAISWIDSITYYADSVKGRFTISRDNAKNTVYLQMNSLKPEDIAVYYCAAEGQNEGYDYWVQGTQVTVSS”, the “polyreactivity (PSR sort gate)” value was “high polyreactivity”.

With “QVQLVESGGGLDQAGGSLRLSCAASGGTFGLYAMGWYRQAPGKERELVAAITWSDSSTYYADSVKGRFTISRDNAKNTVYFQMNSLKPEDTAVYYCNAVRSTSYGSYNYWGQGTQVTVSS” the “polyreactivity (PSR sort gate)” value was “low polyreactivity”.

In the case of “QVQLVESGGGLVQAGGSLRLSCAASGRIFVGYTMGWYRQAPGKERELVAAITSGGSTYYADSVKGRFTISRDNAKNTVYLQMNSLNPEDTADYYCNAAYQFDSYHLGGNRYEYWGQGTQETVSS”, the “polyreactivity (PSR sort gate)” value was “low polyreactivity”.

In the case of “QVQLVESGGGLVQAGGSLRLSCAASGSIFYENAMGWYRQAPGKERELVAAISRSGGSTYYADSVKGRFTISRDNAKNSVYLQMNSLKPEDTAVYYCAADVYVFIGDYWGQGTQVTVSS”, the “polyreactivity (PSR sort gate)” value was “low polyreactivity”.

For “QVQLVESGAGLVQAGGSLRLTCAASGFIFRRNAMGWYRQAPGKERELVAAITTGGRTNYADSVKGRFTISRDNAKNTVYLQMNSLKPEDTPVYYCYAPVLDVIDVFYYARILFGYWGQGTQVTVSS”, the “polyreactivity (PSR sort gate)” value was “low polyreactivity”.

For “QVQLVESGGGLVQAGGSLRLSCAASGRTFTYYAMGWYRQAPGKERELVAAITSGGRTYYADSVKGRFTISRDNAKNTVYLQMNSLKPEDTAVYYCAARRIRDYYRSYDYWGQGTQVTVSS”, the “polyreactivity (PSR sort gate)” value was “high polyreactivity”.

For “QVQLVESGGGLVQAGGSLRLSSAASGSTFYYYAMGWYRQAPGKERELVATISRSTARTFYADSVKGRFTISRDNEKNTVYLQMNSLKPEDTAVYYCAATSYVSVYPSYYRFGTYGYWGQGTQVTVSS”, the “polyreactivity (PSR sort gate)” value was “high polyreactivity”.

For “QVQLLDSGGGLVQAGGSLRLSCDASGRTIDIYAMGWYRQAPGKERELVAAISSGGSTYYADSVKGRFTISRDNAKNTVYLQMNSLKPEDTAVYYCAVRWYDQVSRRGIGYYWGQGTQVTVSS”, the “polyreactivity (PSR sort gate)” value was “low polyreactivity”.

In the case of “QVQLVESGGGLVQAGGSLRLSCAASGFTFFLYAMGWYRQAPGKEMELVAAIHSRGGSTYYADSVKGRFTISRDNAKNTVSLQMNSLKPEDTAVYYCAAYIPRSSWGYDYWGQGTQVTVSS”, the “polyreactivity (PSR sort gate)” value was “high polyreactivity”.

With “QVQLVESGGGLVQAGGSLRLSCAASGSIFSTYAMGWYRQAPGKERELVAAISGSGGRTYYADSVKGRFTISRDNAKNTVYLQMNSLKPEDTAVYDCASRVFRGLGEYYWGQGTQVTVSS” the “polyreactivity (PSR sort gate)” value was “high polyreactivity”.

In the case of “QVQLVESGGGLVQAGGSLRLSCAASGSTFYRNGMGWYRQAPGKERELVAGIDRSGGSTYYADSVKGRFTISRDNAKNTVYLQMNSLKPEDTAVYYCAAQNGYYPQHDYWGQGTQVTVSS”, the “polyreactivity (PSR sort gate)” value was “high polyreactivity”.

In the case of “QVQLVESGGGLVQAGGSLRLSCAASGSTFSKNAMGWYRQAPGKERELVAAIRSRGGSTYYADSVKGRFTISRDNAKNTVYLQMNSLKPEDTAVYYCNKVRAYEGDYWGQGTQVTVTS”, the “polyreactivity (PSR sort gate)” value was “high polyreactivity”.

For “HVQLVESGGGLVQAGGSLRLSCAASGSTFTLNVMGWYRQAPGKERELVAGISKRGGNTYYADSVKGRFTISRDNAKNTVYLQMNSLKPEDTAVYYCATYSRIFKWEYYYWGQGTQVTVSS”, the “polyreactivity (PSR sort gate)” value was “high polyreactivity”.

With “QVQLVESGGGLVQAGGSLRLSCAASGSIFTYYAMGWYRQAPGKEREFVAAISRRGGSTYYADSVKGRFTISRDNAKNTVYLQMNSLKPEDTAVYYCAADRWTRTLVKVIGRYYYWGQGTQVTVSS” the “polyreactivity (PSR sort gate)” value was “high polyreactivity”.

In the case of “QVQLVESGGGLVQAGGSLRLSCAASGRTYLPNDMGWYRPAPGKERELVAAITDSGGDTYYADSVKGRFTISRDIAKNTVYLQMNSLKPEDTAVYYCAADYYYYGSYYPVEYWGHGTQVTVSS”, the “polyreactivity (PSR sort gate)” value was “high polyreactivity”.

For “QVQLVESGGGLVQAGGSLRLSCAASGSIFQGNAKGGYRQAPGKERELVAGISDGGSTYYADSVKGRFTISRDNAKNTVYLQMNSLKPEDTAVYYCAAESEQWYSYVLSYDWEYDYWGQGTQVTVSS”, the “polyreactivity (PSR sort gate)” value was “low polyreactivity”.

In the case of “QVQLVESGGCLVQAGGSLRLSCAASGITFVGNAMGCYRQAPVKERELVAGIRGNGGSTYYADSVKGRFTISRDYAKNTVYLQMNSLKPEDTAVYYCAAAAYYADFDYWGQGTQVTVSS”, the “polyreactivity (PSR sort gate)” value was “low polyreactivity”.

In the case of “QVQLVESGGGLVQAGGSLRLSCADSGRTIGLNGMGWYRQAPGKERELVAGISWTGGSTNYADSVKGRFTFSRDNEKNTVYLQINSLKPEDTAVYYCAADFVYYVVNDFGWSYAYEYWGQGTQVTVSS”, the “polyreactivity (PSR sort gate)” value was “low polyreactivity”.

With “QVQLVESGGGLVQAGGSLRLICAASGRIFAYYAMGWYRHAPGKERELVAAISGSGRTYYADSVKGRFTISRDNAKYTVYLQMNSLKPEDTAVYYCNNVYSFYYTEGYDYWGQVTQVTVSS” the “polyreactivity (PSR sort gate)” value was “high polyreactivity”.

For “QGQLVESGGGLVQAGGSLRLSCAASGSTFVYYARGWYRQAPGKEREMVAAIRYSGASTYYADSVKGRFTISRDNAKNTVYLQMNSLKPEDTAVYYCAAQPTTRRVPRFSSRARHYYWGQGTQVTVSS”, the “polyreactivity (PSR sort gate)” value was “high polyreactivity”.

With “QVQLVESGGGLVQAGGSVRLSCAASGFIFYDYVMGWYRQAPGKERELVAAISASGGSTYYADSVKGRFTISRDYAKNTVYLQMNSLKPEDTAVYYCAAPRYYYYWRDYWGQGTQVTVSS” the “polyreactivity (PSR sort gate)” value was “high polyreactivity”.

With “QVQLVESGGGLVQAGGSLRLSCAASGRIFSVNAMVWYRPAPGKERELVAAITGSGTITYYADSVKGRFTISRDNAKNTVYLQMSSLKPEDTAVYYCAARPVLRYYAGYYYWGQGTQVTVSS” the “polyreactivity (PSR sort gate)” value was “high polyreactivity”.

For “QVQLQESGGGLVQAGGSLRLSCAASGNIFLSIFMGWYRQAPGKEREFVAGIGSGTNTNYADSVKGRFTISRDNAKNTVYLQMNSLKAEDTAGYYSAAGRYGLYYHGYWGQGTQVTVSS”, the “polyreactivity (PSR sort gate)” value was “high polyreactivity”.

For “QVQLVESGGGLVQAGGSLRLSCAASGRIFSWNAMGWYRQAPGKERELVAAITIGGGTYYADSVKGRFTISRDNAKNTVYLQMNSLKPEDTAVYYCNAYRRKLWYPTGMYWGQGTQVTVSS”, the “polyreactivity (PSR sort gate)” value was “high polyreactivity”.

With “QVQLVESGGGLVQAGGSLRLICAASGFIFPVNAMGWYRQAPGKERELVAAITSSGGDTYYADSVKGRFTISRDNAKNTVYLQMNSLKPEDTAVYYFAAEYTQEQEDYDYWGQVTQVTVSS” the “polyreactivity (PSR sort gate)” value was “low polyreactivity”.

With “QVQLVESGGGLVQAGGSLRLSCAASGFIFRRYAMVWYRQAPGKERELVAAISTGGSTYYADSVKGRFTISRDNAKNTVYLQMNSLKPDDTAVFYCNVKRRTYGQYRMYYWGQGTQVTVSS” the “polyreactivity (PSR sort gate)” value was “low polyreactivity”.

For “QVQLVESGGGFVQAGGSLRLSCAASGYIFEWNAMGWYRQAPGKERELVASIDSDGSTYYADSVKGRFTISRDNAKNTVYLQMNSLKPEDTAVYYCNARGYTGGEVLAEYDYWGQGTQVTVSS”, the “polyreactivity (PSR sort gate)” value was “low polyreactivity”.

With “QVQLVESGGGLVQAGGSLRLSCAASGFIFRKYAMGWYRHAPGKETELVAAITRNGGRTYYADSVKGRFTISRDNAKYTVYLQMNSLKPEDTAVFYCNRRGQYTFWPIHEYWGQGTQVTVSS” the “polyreactivity (PSR sort gate)” value was “high polyreactivity”.

For “PVQLVESGGGLVQAGGSLRLSCAASGTIFFSNAMGWYRQAPGKEREFVATITSSGVGTYYADSVKGRFTISRDNAKNTVYLQMNSLTPEDTAVYYCAADLTISYSQEYYYWGQGTQVTVSS”, the “polyreactivity (PSR sort gate)” value was “low polyreactivity”.

With “QVQRVDSGGGLVQAGGSLRLSCAASGITLLRYTMGWYRQAPGKERELLASITKRGGSTYYADSVKGRFTISRDNAKNTVYLQMNSLKPEDTAVYYCNADRHNSYYRKWDQLDMDYWGQGTQVTVSS” the “polyreactivity (PSR sort gate)” value was “high polyreactivity”.

For “QVQLVESCGGLVQAGGSLRLSCAASRLIFGYYAMGWYRQAPVKERELVASISSGGRTYYADSVKGRFTISRDNAKNTVNLQMNSLKPEDTAVYYCNAVKGWFVYEYDYWGQGTQVTVSS”, the “polyreactivity (PSR sort gate)” value was “low polyreactivity”.

In the case of “HVQLVESGAGLVQAGGSLRLSCAASGSTLRYYAMGWYRQAPGKERELVAAISTVGSTYYADSVKCRFTISRDNAKNTVNLQMNILKPEDTAVYYCAAEPWANTPGDAGSPFDYWGQGTQVTVSS”, the “polyreactivity (PSR sort gate)” value was “low polyreactivity”.

For “QVQLVESGRGLVQAGGSLRLSCAASGFTFKSYAKGWYRHATGKVRELVAAISRGTSTKYADSVKGRFTISRDNAKNTVYLQMNSLKPEDSAVYNCAALFPTSDLRLRYYRYDYWGQGTQVTVSS”, the “polyreactivity (PSR sort gate)” value was “low polyreactivity”.

With “QVQLVESGGGLVQAGGSLRLSCADSGFTFIKYAMGWYRQAPGKEREFVATISWNGGNTYYADSVKGRFTISRDNAKNTVYLQMNSLKPEDTAVYYCAARVKYRTRGGTVVSYDYWGQGPQVTVSS” the “polyreactivity (PSR sort gate)” value was “high polyreactivity”.

For “QVQLVESGVGLVQAGGSLRLSCAASGSIFQGYAMGWYRQAPGKERELVAGITSSGGRTRYADSLKGRFTISRDNAKNTVYLQMNSLKPEDTAVYSCAADYVRHIGYNYWGQGNQVTVSS”, the “polyreactivity (PSR sort gate)” value was “high polyreactivity”.

With “QVQLVESGGGLVQAGGSLRLSCAASGFTFGGNARGWYRQAPGKERELVAAIRRGGSTNYADSVKGRFTISRDNAKNTVYLQMNSLKPEDTAVYYCARDYRSYTGSYDTSYDYWGQGTQVTVSS” the “polyreactivity (PSR sort gate)” value was “high polyreactivity”.

In the case of “QVQLVESGGGLVQAGGSLRLSCAASGSTFGANAMGWYRQAPGKEREFVAAISRSGVRTYYADTVKGRFTMSRDNAKITVYFQMNSLKPEDTAVYYCAADGYWWTYTRYDYWGQGTQVTVSS”, the “polyreactivity (PSR sort gate)” value was “low polyreactivity”.

For “QVQLVESGGGLVQAGGSLRLSCAASGIIFYVNDMGWYRQAPGKERELVADISGGTSTNYADSVKGRFTISRDNAKNTVYLQMNSLKPEDTAVYYCATAFIVPFPGSDYWGQGTQVTVSS”, the “polyreactivity (PSR sort gate)” value was “low polyreactivity”.

In the case of “QVQLVESGGGLVQAGGSLRLSCAASGSIFIYAMGWYRQAPGKERELVATISWSGTSTYADSVKGRFTISRDNAKNTVYLQMNSLKPEDTAVYYCNKLKRTYYSSGYPHDYWGQGTQVTVSS”, the “polyreactivity (PSR sort gate)” value was “low polyreactivity”.
